Here are results for 24 molecules from US20150368300A1, “COMPOSITIONS AND METHODS RELATING TO […] DOT1L RECRUITMENT BY MLL-FUSION PROTEINS” (published 2015).

Experiment [1] deals with T1, AF9 (497-568), recombinant C-terminal domain of human AF9 (human, UniProt P42568). Put plainly: competitive SPR; peptide pre-incubated with AF9 (500 nM), over immobilised Mocr-DOT1L (826-1095).
Experiment [2] has as its target T2, ENL (489-559), recombinant C-terminal domain of ENL (Homo sapiens (Human), UniProt Q03111).
T2 sequence: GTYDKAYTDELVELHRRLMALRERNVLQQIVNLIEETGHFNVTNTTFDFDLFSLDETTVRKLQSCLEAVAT
Nature of the experiment: competitive SPR; peptide pre-incubated with ENL (500 nM), over immobilised Mocr-DOT1L (826-1095). The protocol:
Solution competitive SPR based assay was performed to determine the IC₅₀ values of DOT1L peptides. […] IC₅₀ values were determined by non-linear least squares analysis using Graph Pad Prism 5.0 software.

Experiment [3] addresses Mocr-DOT1L (826-1095) (human) (UniProt Q8TEK3). Put plainly: SPR; Mocr-DOT1L (826-1095) immobilised. (In general: Surface plasmon resonance follows binding to a sensor surface in real time, without labels.)
Experiment [4] addresses T3, MBP-ENL (489-559) (Homo sapiens (Human)) (UniProt Q03111).
T3 sequence: T2 sequence
Put plainly: ITC; peptide (500 µM) into MBP-ENL (110 µM). For orientation: In ITC the heat of successive injections is recorded.

Experiment [5] has as its target T3, MBP-ENL (489-559) (Homo sapiens (Human)). Nature of the experiment: ITC.
For experiment [6], the target named is T1, AF9 (497-568), recombinant C-terminal …. Nature of the experiment: competitive SPR.
Experiment [7] concerns the target T2, ENL (489-559), recombinant C-terminal …. Nature of the experiment: competitive SPR.
In experiment [8] the target is T4, GB1-AF9 (497-568) (human) (UniProt P42568).
T4 sequence: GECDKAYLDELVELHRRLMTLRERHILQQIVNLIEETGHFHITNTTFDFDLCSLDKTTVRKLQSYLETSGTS
Put plainly: competitive FP; displacement of Flu-DOT1L from GB1-AF9.

Experiment [9] has as its target T4, GB1-AF9 (497-568) (human). Put plainly: competitive FP; displacement of N-Flu-DOT1L from GB1-AF9.
In experiment [10] the target is T3, MBP-ENL (489-559) (Homo sapiens (Human)). Nature of the experiment: FP saturation; 10 nM Flu-DOT1L titrated with MBP-ENL.
Experiment [11] concerns the target T4, GB1-AF9 (497-568) (human). Put plainly: FP saturation; 10 nM Flu-DOT1L titrated with GB1-AF9.
Experiment [12] concerns the target T4, GB1-AF9 (497-568) (human). Nature of the experiment: FP saturation; 5 nM labeled peptide titrated with GB1-AF9.
Experiment [13] deals with Mocr-DOT1L (826-1095) (human) (UniProt Q8TEK3). Nature of the experiment: SPR; DOT1L construct immobilised on CM5 chip.
In experiment [14] the target is DOT1L (925-1095) (human) (UniProt Q8TEK3). Nature of the experiment: SPR; DOT1L construct immobilised on CM5 chip.
The target in a further experiment is T5, DOT1L (854-925) (human) (UniProt Q8TEK3).
T5 sequence: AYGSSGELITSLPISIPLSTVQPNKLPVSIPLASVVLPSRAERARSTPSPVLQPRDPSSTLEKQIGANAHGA
Nature of the experiment: SPR; DOT1L construct immobilised on CM5 chip.

For the next experiment, the target named is DOT1L (854-1095) (human) (UniProt Q8TEK3). Nature of the experiment: SPR; DOT1L construct immobilised on CM5 chip.
In another experiment the target is T6, DOT1L (826-958) (human) (UniProt Q8TEK3).
T6 sequence: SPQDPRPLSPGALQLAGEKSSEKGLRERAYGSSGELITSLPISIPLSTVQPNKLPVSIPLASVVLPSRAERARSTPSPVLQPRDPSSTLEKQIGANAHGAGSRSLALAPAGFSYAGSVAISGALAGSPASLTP
Put plainly: SPR; DOT1L construct immobilised on CM5 chip.

The next experiment has as its target T7, DOT1L (826-937) (human) (UniProt Q8TEK3).
T7 sequence: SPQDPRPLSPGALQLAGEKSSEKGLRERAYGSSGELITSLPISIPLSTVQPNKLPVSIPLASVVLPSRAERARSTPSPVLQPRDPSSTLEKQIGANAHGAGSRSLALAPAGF
Nature of the experiment: SPR; DOT1L construct immobilised on CM5 chip.

Experiment [15] concerns the target DOT1L (925-1095) (human) (UniProt Q8TEK3). Put plainly: SPR; DOT1L (925-1095) immobilised, compared with the longer constructs.
Experiment [16] addresses Flag-tagged full length human DOT1L protein, DOT1L (1-1537) (human) (UniProt Q8TEK3). Put plainly: SPR; Flag-DOT1L captured on anti-Flag CM5 chip, ENL as analyte.
Experiment [17] shares this target. Nature of the experiment: SPR; full length Flag-DOT1L captured on chip.
Experiment [18] shares this target. Nature of the experiment: SPR; Flag-DOT1L captured on anti-Flag CM5 chip, AF9 as analyte.
Experiment [19] concerns the target T3, MBP-ENL (489-559) (Homo sapiens (Human)). Nature of the experiment: ITC; peptide (400 µM) into MBP-ENL (489-559) (80 µM).

Where no end group is shown, it is not given here. fluorescein = fluorescein label, coupled through a lysine and two β-alanine spacer

The IC50 is the concentration needed to halve the response being measured. Consider Ac-LPISIPLATV-NH2 [S872A, alanine mutated DOT1L 10mer peptide], for which the IC50 in experiment [1] was 550 nM; in experiment [2], 2800 nM.

B1: ENL H1 (489-544) (protein)
chain: GTYDKAYTDELVELHRRLMALRERNVLQQIVNLIEETGHFNVTNTTFDFDLFSLDE
One may read the Kd as the free concentration of one partner at which half of the binding sites on the other are occupied at equilibrium, for simple one-to-one binding. The low end stands for a tighter complex, the high end for a looser complex. In [3], B1 showed a Kd of 2800 nM and a fold decrease in binding affinity against the intact ENL C-terminal domain of 10 fold.

With Ac-LPISIPL-NH2 [DOT1L 7 mer peptide, Ac-LPISIPL-NH2 (865-871)], the IC50 in experiment [1] worked out at 3900 nM; in experiment [2] it was 7300 nM. In [4], this molecule returned a Kd of 3400 nM. The fold lower affinity against the 16-mer and 10-mer DOT1L peptides in experiment [5] was 3 fold. In addition, the entries for the “fold reduction in binding against the 10-mer peptide” value in experiment [6] and in [7] were 8 fold and 5 fold, respectively.

On to Ac-APISIPLSTV-NH2 [L865A, alanine mutated DOT1L 10mer peptide], for which the IC50 in experiment [1] stood at 98500 nM; in experiment [2] it was 27500 nM.

In the case of Ac-LPISAPLSTV-NH2 [I869A, alanine mutated DOT1L 10mer peptide], the IC50 in [1] and in experiment [2] was more than 200000 nM in each case.

LSPLRDTPPPQSLMVKITLDLLSRIPQ [AF4 recombinant protein (749-775 residues)] returned an IC50 in [8] of 560 nM.

In the case of Ac-LPISIPLSTV-NH2 [DOT1L 10mer peptide, Ac-LPISIPLSTV-NH2 (a.a. 865-874)], the figures for the IC50 in experiment [1] and in [2] were 490 nM and 1340 nM, respectively.

The term Ki denotes a measure of affinity in units of concentration, obtained from inhibition or displacement. Higher therefore signals weaker binding. For Ac-LPISIPLSAV-NH2 [T873A, alanine mutated DOT1L 10mer peptide], the IC50 in [1] came to 58 nM; in [2], 360 nM. Also, the Ki in experiment [9] is 203 nM.

In the case of LPISIPLSTV-NH2 (not fully specified (N-terminus)) [N-Flu-DOT1L, fluorescein-labeled DOT1L 10-mer peptide (N-terminal label)], the Kd in [10] was determined as 495 nM; in experiment [11], 65 nM; in experiment [12], 95 nM.

Regarding Ac-LAISIPLSTV-NH2 [P866A, alanine mutated DOT1L 10mer peptide], the IC50 in [1] came out at 3300 nM; in [2], 6500 nM.

In experiment [8], Ac-LMVKITLDLLSRIP-NH2 [AF4 14 mer peptide, Ac-…-NH2] came in with an IC50 of 280 nM.

Regarding Ac-LPASIPLSTV-NH2 [I867A, alanine mutated DOT1L 10mer peptide], the IC50 in experiment [1] was 57200 nM; in [2], more than 200000 nM.

For Ac-LPISIALSTV-NH2 [P870A, alanine mutated DOT1L 10mer peptide], the figures for the IC50 in [1] and in experiment [2] were 2800 nM and 11600 nM, respectively.

B2: ENL (489-559), recombinant C-terminal domain of ENL (protein)
chain: T2 sequence
Consider B2, for which the Kd in experiment [13] amounted to 238 nM; with DOT1L (925-1095) (human) [14], 6220 nM; in the experiment with DOT1L (854-925) (human), 90 nM; with DOT1L (854-1095) (human) it was 148 nM; with DOT1L (826-958) (human), 122 nM; with DOT1L (826-937) (human), 81 nM. Moreover, in experiment [16], the Kd amounted to 206 nM. Moreover, the fold decrease in binding affinity in the experiment with DOT1L (925-1095) (human) [15] stood at 30 fold.

As for Ac-LPISIPLSTV-fluorescein (also: C-terminal fluorescein label, attachment not given here) [C-Flu-DOT1L, fluorescently labeled DOT1L-10 mer peptide (C-terminal label)], the Kd in experiment [12] amounted to 127 nM.

For the molecule Ac-LPIAIPLSTV-NH2 [S868A, alanine mutated DOT1L 10mer peptide], the IC50 in experiment [1] stood at 5300 nM; in experiment [2], 29100 nM.

In the case of Ac-LPISIPLSTA-NH2 [V874A, alanine mutated DOT1L 10mer peptide], the IC50 was found to be 700 nM in experiment [1] and 4200 nM in [2].

B3: AF9 (497-568), recombinant C-terminal domain of human AF9 (protein)
chain: T4 sequence
With B3, the fold higher affinity (AF9 against ENL) in experiment [17] came to 6 fold. In addition, the Kd was 33 nM in experiment [18]; 111 nM in [13]; 1820 nM with DOT1L (925-1095) (human) [14]; 42 nM with DOT1L (854-925) (human); 135 nM in the experiment with DOT1L (854-1095) (human); 92 nM with DOT1L (826-958) (human). In addition, the Kd with DOT1L (826-937) (human) turned out to be 78 nM. Further, the fold decrease in binding affinity in the experiment with DOT1L (925-1095) (human) [15] came to 50 fold.

In experiment [19], Ac-LPISIPLSTV-NH2 [DOT1L 10mer peptide, Ac-…-NH2 (a.a. 865-874)] registered a Kd of 1100 nM. The molecule also displayed a Ki in experiment [9] of 68 nM.

For Ac-LPISIPLSTVQPNKLP-NH2 [DOT1L 16 mer peptide, Ac-LPISIPLSTVQPNKLP-NH2 (a.a. 865-880)], the IC50 is 320 nM in experiment [1] and 1560 nM in experiment [2].

As for Ac-LMVKITLDLLSRIP-NH2 [AF4 14 mer peptide, Ac-LMVKITLDLLSRIP-NH2], the IC50 is 200 nM in experiment [1] and 430 nM in experiment [2].

On to EETGHFNVTNTTFDFDLFSLDETTVRKLQSCLEAVAT [ENL H2 (523-559)], for which, in [3], the Kd came to 14600 nM and the fold decrease in binding affinity against the intact ENL C-terminal domain turned out to be 30 fold.

The molecule Ac-LPISIPLSTVQPNKLP-NH2 [DOT1L 16 mer peptide, Ac-…-NH2 (a.a. 865-880)] registered a Kd in experiment [19] of 900 nM. This molecule also yielded a Ki in experiment [9] of 80 nM.

Take Ac-LPISIPASTV-NH2 [L871A, alanine mutated DOT1L 10mer peptide]: the IC50 in [1] is 30700 nM; in experiment [2] it was 147000 nM.
